We go through 1 protein from PMC8061786 (Journal of Molecular Biology, 2021).

The data set deals with the molecule itself. The data set is described as follows: crystal structure.

B1: SARS-CoV main protease (M^pro) (enzyme)
chain: SGFRKMAFPSGKVEGCMVQVTCGTTTLNGLWLDDTVYCPRHVICTAEDMLNPNYEDLLIRKSNHSFLVQAGNVQLRVIGHSMQNCLLRLKVDTSNPKTPKYKFVRIQPGQTFSVLACYNGSPSGVYQCAMRPNHTIKGSFLNGSCGSVGFNIDYDCVSFCYMHHMELPTGVHAGTDLEGKFYGPFVDRQTAQAAGTDTTITLNVLAWLYAAVINGDRWFLNRFTTTLNDFNLVAMKYNYEPLTQDHVDILGPLSAQTGIAVLDMCAALKELLQNGMNGRTILGSTILEDEFTPFDVVRQCSGVTFQ
Consider B1, for which the binding result is listed as “binds”.
